Assay results published in patent US20260250318A1, “COMPOSITIONS AND METHODS FOR CROSSING THE BLOOD BRAIN BARRIER” (VOYAGER THERAPEUTICS, INC., priority 2022, published 2026).
Changes are numbered by the printed parent chain.

B1: TTM-006: AAV9 capsid variant, full length capsid sequence of Table 4 (protein)
chain: MAADGYLPDWLEDNLSEGIREWWALKPGAPQPKANQQHQDNARGLVLPGYKYLGPGNGLDKGEPVNAADAAALEHDKAYDQQLKAGDNPYLKYNHADAEFQERLKEDTSFGGNLGRAVFQAKKRLLEPLGLVEEAAKTAPGKKRPVEQSPQEPDSSAGIGKSGAQPAKKRLNFGQTGDTESVPDPQPIGEPPAAPSGVGSLTMASGGGAPVADNNEGADGVGSSSGNWHCDSQWLGDRVITTSTRTWALPTYNNHLYKQISNSTSGGSSNDNAYFGYSTPWGYFDFNRFHCHFSPRDWQRLINNNWGFRPKRLNFKLFNIQVKEVTDNNGVKTIANNLTSTVQVFTDSDYQLPYVLGSAHEGCLPPFPADVFMIPQYGYLTLNDGSQAVGRSSFYCLEYFPSQMLRTGNNFQFSYEFENVPFHSSYAHSQSLDRLMNPLIDQYLYYLSKTEKMSGSPHSKAQNQQTLKFSVAGPSNMAVQGRNYIPGPSYRQQRVSTTVTQNNNSEFAWPGASSWALNGRNSLMNPGPAMASHKEGEDRFFPLSGSLIFGKQGTGRDNVDADKVMITNEEEIKTTNPVATESYGQVATNHQSAQAQAQTGWVQNQGILPGMVWQDRDVYLQGPIWAKIPHTDGNFHPSPLMGGFGMKHPPPQILIKNTPVPADPPTAFNKDKLNSFITQYSTGQVSVEIEWELQKENSKRWNPEIQYTSNYYKSNNVEFAVNTEGVYSEPRPIGTRYLTRNL
B2: TTM-018: AAV9 capsid variant, full length capsid sequence of Table 4 (protein)
chain: B1 chain with E451I, K452N, M453G, S454H, G455D, Q464L
B3: TTM-019: AAV9 capsid variant, full length capsid sequence of Table 4 (protein)
chain: B1 chain with E451V, K452N, M453G, S454H, G455D

Columns and labels:
ALPL [1] = target: T1, ALPL (Homo sapiens, UniProt P05186); experiment: SPR (Biacore 8K) binding of peptide ligands to ALPL; conditions: 50 μM peptides or 250 nM capsids flowed over
T1 sequence (P05186 18-501): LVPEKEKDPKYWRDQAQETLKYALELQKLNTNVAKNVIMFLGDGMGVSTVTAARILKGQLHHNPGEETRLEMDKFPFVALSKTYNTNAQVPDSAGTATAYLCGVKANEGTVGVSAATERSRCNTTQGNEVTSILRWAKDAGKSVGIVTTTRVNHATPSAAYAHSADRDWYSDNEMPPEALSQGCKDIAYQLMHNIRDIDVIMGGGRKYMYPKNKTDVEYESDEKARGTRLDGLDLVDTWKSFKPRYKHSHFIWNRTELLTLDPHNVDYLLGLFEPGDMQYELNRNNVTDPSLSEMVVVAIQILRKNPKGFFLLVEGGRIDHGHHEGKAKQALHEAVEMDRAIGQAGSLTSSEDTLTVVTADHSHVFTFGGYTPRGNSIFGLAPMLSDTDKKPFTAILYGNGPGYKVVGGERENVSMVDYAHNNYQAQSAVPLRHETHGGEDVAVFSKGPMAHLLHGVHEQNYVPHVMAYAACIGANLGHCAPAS
Description: Binding and interaction between the peptides and the ALPL receptor were measured by Surface Plasmon Resonance (SPR) on a Biacore 8K instrument. The biotinylated peptides in Table 37 were captured on the streptavidin biosensor chip and 1000 nM of ALPL and buffer were passed over the peptides to monitor binding. […] His-tagged ALPL was then captured on the chip pre-immobilized with anti-His antibody, and 50 μM of the peptides in Table 37 or 250 nM of the AAV9 control capsid, the TTM-001 capsid variant (SEQ ID NO: 981), or the TTM-002 capsid variant (SEQ ID NO: 982) were flowed over the ALPL to check for binding. […] The longer peptides derived from TTM-002,
were also flowed over the his-tagged ALPL captured on the CM5 sensor chip pre-immobilized with anti-His antibody.
Binding and interaction between the phosho-peptides and the ALPL receptor were also measured by SPR. The biotinylated and phosphorylated peptides in Table 38 were captured on the streptavidin biosensor chip along with their non-phosphorylated counterparts, […] (SEQ ID NO: 4500) and […] (SEQ ID NO: 4503). ALPL and buffer were passed over the peptides to monitor binding. The concentration of ALPL used ranged from 0 to 500 nM (0 nM, 125 nM, 250 nM, and 500 nM).
In a second experiment, his-tagged ALPL was first captured on a CM5 sensor chip pre-immobilized with anti-His antibody. The phosphorylated peptides in Table 38 and their non-phosphorylated counterparts, […] (SEQ ID NO: 4500) and […] (SEQ ID NO: 4503) and buffer were flowed over the ALPL protein to monitor binding.

ALPL [2] = target: T2, ALPL (Homo sapiens, UniProt P05186); type: cell-based; conditions: for Luciferase Activity (fold change relative to pCMV6 transfected cells): Table 28, ALPL transfected cells; for fold increase in transduction by luciferase assay in cells expressing ALPL: relative to pCMV6 transfected cells, 24 hours post-transduction
T2 construct: expressed in transfected cells; host or cells: HEK 293T
T2 sequence (P05186 whole entry, looked up): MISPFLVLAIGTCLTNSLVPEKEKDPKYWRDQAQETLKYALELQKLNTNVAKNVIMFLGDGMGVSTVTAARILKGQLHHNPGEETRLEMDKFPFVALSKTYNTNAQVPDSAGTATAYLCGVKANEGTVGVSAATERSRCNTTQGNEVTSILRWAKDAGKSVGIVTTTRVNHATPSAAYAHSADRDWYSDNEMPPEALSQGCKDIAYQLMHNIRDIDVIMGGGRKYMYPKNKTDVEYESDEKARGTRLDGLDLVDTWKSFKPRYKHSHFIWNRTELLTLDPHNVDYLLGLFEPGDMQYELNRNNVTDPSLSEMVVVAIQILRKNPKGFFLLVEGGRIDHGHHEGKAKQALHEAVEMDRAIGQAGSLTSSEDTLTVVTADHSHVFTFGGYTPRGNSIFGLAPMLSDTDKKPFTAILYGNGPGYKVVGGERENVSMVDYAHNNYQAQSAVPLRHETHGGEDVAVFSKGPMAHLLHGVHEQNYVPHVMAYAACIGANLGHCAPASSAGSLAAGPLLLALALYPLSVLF
Description: (§1) Briefly, a transduction assay was performed in that HEK 293T cells were transfected via calcium phosphate transfection with a plasmid expressing ALPL, an AAVR positive control, or a pCMV6 negative control (250 ng or 500 ng of plasmid). AAVR is a universal AAV entry factor involved in AAV transduction. […] At 24-hours post-transduction, GFP expression and luciferase activity were measured to quantify and observe AAV cellular transduction. […] The TTM-002, TTM-006, TTM-018, and TTM-019 capsid variants all comprised the SPH motif immediately subsequent to position 455, numbered relative to SEQ ID NO: 138 and a positive residue in one of the next three residues subsequent to the SPH motif.
(§2) To determine if the TTM-001 and TTM-002 capsid variants could bind to both the human ALPL protein (NM_000478.6, which is incorporated by reference herein) and the mouse ALPL ortholog (NM_001287172.1, which is incorporated by reference herein), HEK 293T cells were transfected via calcium phosphate transfection with a plasmid expressing human ALPL, the murine ortholog of ALPL, or a pCMV6 negative control. At 24 hours post-transfection, the HEK 293T cells expressing the ALPL receptor were transduced with an AAV particle comprising the TTM-001 capsid variant, the TTM-002 capsid variant, or an AAV9 control capsid protein, expressing a Luc2-GFP payload. At 24-hours post-transduction, luciferase activity (RLU) was measured to quantify AAV cellular transduction.

AAVR = target: T3, AAVR (Homo sapiens, UniProt Q8IZA0); type: cell-based; conditions: Table 28; AAVR transfected cells
T3 construct: expressed in transfected cells; host or cells: HEK 293T
T3 sequence (Q8IZA0 whole entry, looked up): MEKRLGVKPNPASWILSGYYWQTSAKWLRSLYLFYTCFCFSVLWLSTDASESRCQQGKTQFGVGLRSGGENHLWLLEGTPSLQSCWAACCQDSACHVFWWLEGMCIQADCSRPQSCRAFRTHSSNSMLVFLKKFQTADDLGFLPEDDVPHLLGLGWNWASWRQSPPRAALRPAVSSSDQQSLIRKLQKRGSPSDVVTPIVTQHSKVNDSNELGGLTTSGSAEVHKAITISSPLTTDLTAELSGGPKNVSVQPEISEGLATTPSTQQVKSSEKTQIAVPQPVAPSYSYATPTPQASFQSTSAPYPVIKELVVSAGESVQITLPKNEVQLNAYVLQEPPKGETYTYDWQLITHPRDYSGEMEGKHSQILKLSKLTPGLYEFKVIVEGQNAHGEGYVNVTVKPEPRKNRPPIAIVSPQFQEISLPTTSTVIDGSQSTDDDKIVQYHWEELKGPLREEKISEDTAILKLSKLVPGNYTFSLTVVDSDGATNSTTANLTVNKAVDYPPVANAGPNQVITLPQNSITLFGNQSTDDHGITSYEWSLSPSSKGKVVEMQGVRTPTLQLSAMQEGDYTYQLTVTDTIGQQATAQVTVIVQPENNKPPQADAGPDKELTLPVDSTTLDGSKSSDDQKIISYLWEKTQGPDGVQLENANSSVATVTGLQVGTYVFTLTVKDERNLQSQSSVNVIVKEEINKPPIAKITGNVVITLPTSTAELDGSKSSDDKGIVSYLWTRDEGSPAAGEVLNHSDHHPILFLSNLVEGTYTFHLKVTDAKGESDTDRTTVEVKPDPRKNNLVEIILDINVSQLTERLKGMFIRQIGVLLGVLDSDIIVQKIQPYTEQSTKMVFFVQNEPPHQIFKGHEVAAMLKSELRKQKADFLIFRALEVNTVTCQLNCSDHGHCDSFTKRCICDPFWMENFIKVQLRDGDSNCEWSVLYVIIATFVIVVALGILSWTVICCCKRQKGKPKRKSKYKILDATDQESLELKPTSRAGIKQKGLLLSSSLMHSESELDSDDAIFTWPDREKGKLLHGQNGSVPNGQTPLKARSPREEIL
Description: as §1

[3] = test system: HEK 293T cells transfected with pCMV6 negative control; type: cell-based; conditions: Table 28; pCMV6 transfected cells (negative control, reference)
Description: as §1
Three isoforms of ALPL exist, isoform 1 (Alkaline phosphatase, placental-like 2 (ALPPL2), NM_031313, which is incorporated by reference herein), isoform 2 (alkaline phosphatase, placental (ALPP), NM_001632, which is incorporated by reference herein), and isoform 3 (alkaline phosphatase, intestinal (ALPLI), NM_001631, which is incorporated by reference herein), that can also be expressed on cell surfaces via a GPI-anchor. […] The transduction assay described above was repeated with the three isoforms. HEK 293T cells were transfected via calcium phosphate transfection with a plasmid expressing ALPL, isoform 1 of ALPL, isoform 2 of ALPL, isoform 3 of ALPL, an AAVR positive control, or a pCMV6 negative control. At 24 hours post-transfection, the HEK 293T cells expressing the ALPL receptor were transduced with an AAV particle comprising the TTM-001 capsid variant or the TTM-002 capsid variant, expressing a Luc2-GFP payload. At 24-hours post-transduction, luciferase activity (RLU) was measured to quantify AAV cellular transduction.
To determine if deletion of the endoplasmic reticulum (ER) localization signal of ALPL affected transduction of the TTM-001 and TTM-002 capsid variants, HEK 293T cells were transfected via calcium phosphate transfection with a plasmid expressing ALPL, ALP with a deletion of the ER localization signal (ALPL transcript variant 2 that lacks the ER signal (NM_001127501, which is incorporated by reference herein)), or a pCMV6 negative control. At 24 hours post-transfection, the HEK 293T cells expressing the ALPL receptor were transduced with an AAV particle comprising the TTM-001 capsid variant, the TTM-002 capsid variant, or an AAV9 capsid control, expressing a GFP payload. At 24-hours post-transduction, luciferase activity (RLU) was measured to quantify AAV cellular transduction. Data was normalized to fold change in luciferase activity (RLU) compared to the pCMV6 control.
as §2
AAV entry factor involved in AAV transduction), or a pCMV6 negative control.

Molecule	binding to ALPL by SPR, His-tagged ALPL captured on chip (ALPL [1])	Luciferase Activity (fold change relative to pCMV6 transfected cells) (ALPL [2])	fold increase in transduction by luciferase assay in cells expressing ALPL (ALPL [2])	Luciferase Activity (fold change relative to pCMV6 transfected cells) (AAVR)	Luciferase Activity (fold change relative to pCMV6 transfected cells) [3]
GSGSLYYLSKTINGHDSPHKSGQNQQTLKF [longer peptide derived from TTM-002]	no binding to ALPL was observed				
GSGSRLMNPLIDQYLYYLSKTINGHDSPHKSGQNQQTLKFSVAGPSNMAV [longer peptide derived from TTM-002]	no binding to ALPL was observed				
B1		91 fold	an increase in transduction	25 fold	1 fold
B2		90 fold	an increase in transduction	25 fold	1 fold
B3		88 fold	an increase in transduction	28 fold	1 fold
